Assays:
[1] = molecular target: T1, Human CLEC12A expressed on cells (Ba/F3-hCLEC12A, PL21, HL60) (human, UniProt Q5QGZ9 1-265); test: cell-based or functional assay
T1 sequence: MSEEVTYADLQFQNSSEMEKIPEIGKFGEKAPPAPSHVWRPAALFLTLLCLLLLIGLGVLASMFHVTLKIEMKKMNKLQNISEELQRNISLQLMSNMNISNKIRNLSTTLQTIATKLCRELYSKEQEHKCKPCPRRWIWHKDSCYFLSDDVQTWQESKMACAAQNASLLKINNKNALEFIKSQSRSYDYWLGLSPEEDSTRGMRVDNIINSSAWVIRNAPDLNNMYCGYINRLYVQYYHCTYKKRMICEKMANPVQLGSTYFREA

[2] = molecular target: T2, Human CLEC12A-His (recombinant, K244 WT) (human, UniProt Q5QGZ9 65-265); test: SPR, two-state fit; after pH 5.0, 40C, 2 wks
T2 construct: Made in house (Dragonfly Tx); also called hCLEC12A; hCLEC12A-His; not shown: His tag
T2 sequence: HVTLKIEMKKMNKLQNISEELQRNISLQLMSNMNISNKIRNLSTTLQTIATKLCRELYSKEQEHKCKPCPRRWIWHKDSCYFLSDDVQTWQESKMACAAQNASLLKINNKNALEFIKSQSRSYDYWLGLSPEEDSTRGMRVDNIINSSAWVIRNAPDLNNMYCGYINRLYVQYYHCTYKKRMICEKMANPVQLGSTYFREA

[3] = molecular target: T3, Human CD16a V158 (FcγRIIIa V158) (human, UniProt P08637 17-208, biotinylated); test: SPR 25C, average
T3 construct: Bought recombinant receptor; also called hCD16aV; hFcγRIIIa V158
Experimental: Human and cynomolgus CD64, high and low affinity alleles of CD16a (V158 and F158, respectively), two alleles of CD32a (H131 and R131), CD16b, CD32b and cynomolgus CD16 were captured via biotin on a primed (according to the manufacturers instruction) Biacore chip. […] Due to irreversibility of streptavidin-biotin interaction, the capture step for all receptors except FcγRI (CD64) was performed just once prior to the start of the binding experiment. hCD64 and cyno CD64 capture on the CAP chip surface was performed during each cycle in accordance with the manufacturer's instructions for the Biotin CAPture kit.

[4] = molecular target: T1, Human CLEC12A expressed on cells …; test: cell-based or functional assay; remark: listed apart in the source
Cynomolgus FcRn = molecular target: T4, Cynomolgus FcRn (cynomolgus monkey, UniProt Q8SPV9 24-297; Q8SPW0 21-119); test: SPR 25C, pH 6.0, FcRn on chip, steady state fit (n = 3)
T4 construct: Bought recombinant receptor; also called cFcRn; cyno FcRn
Experimental: Recombinant human or cynomolgus monkey (cyno) FcRn was captured on a surface of an SA series S chip at a concentration of 0.25 μg/mL for 1 minute. […] Each FcRn binding experiment consisted of multiple cycles utilizing varying concentrations of analytes. […] 0 nM blank cycle placed at the start of each concentration series and a blank amine coupling modified chip surface lacking FcRn were used for referencing. Each experimental cycle included association, dissociation and regeneration steps. The association step consisted of 60 sec analyte injection and was followed by a 60 sec dissociation step. Surface regeneration (60 sec injection of HBS-EP+ buffer, pH 7.4) completed each kinetic cycle. All steps were executed at a flow rate of 30 μL/min and at 25° C. MBS-EP+ buffer, pH 6.0 was used as a running buffer. The data were fitted to a steady state affinity model with Biacore Insight evaluation software. Chi² (calculated by the software) related to the calculated Rₘₐₓ was used to assess goodness of the fit. All reported values were rounded to one decimal place.

mFc-hNKG2D [5] = molecular target: T5, mFc-hNKG2D (human, UniProt P26718 73-216); test: SPR, 37 C, mFc-hNKG2D captured, kinetic fit; average
T5 construct: extracellular domain; Recombinant mFc-tagged NKG2D dimer, made in house; also called human NKG2D; not shown: mouse Fc tag
T5 sequence (looked up): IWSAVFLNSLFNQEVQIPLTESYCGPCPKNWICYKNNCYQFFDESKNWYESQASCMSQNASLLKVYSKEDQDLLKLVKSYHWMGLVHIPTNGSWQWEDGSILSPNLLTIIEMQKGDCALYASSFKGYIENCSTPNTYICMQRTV

mFc-hNKG2D [6] = molecular target: T5, mFc-hNKG2D; test: SPR, 37 C, mFc-hNKG2D captured, steady state fit; average
Text: NKG2D is a dimer in nature, therefore recombinant mFc-tagged NKG2D dimer was used for this experiment. […] Two different fits were utilized to obtain the equilibrium affinity data: steady state affinity fit and kinetic fit.

[7] = molecular target: T6, human CLEC12A expressed on cells (human, UniProt Q5QGZ9 1-265); test: flow cytometry, HL60
T6 construct: Transduced isogenic cells or endogenous expression on AML cells; also called RMA-hCLEC12A; Ba/F3-hCLEC12A
T6 sequence: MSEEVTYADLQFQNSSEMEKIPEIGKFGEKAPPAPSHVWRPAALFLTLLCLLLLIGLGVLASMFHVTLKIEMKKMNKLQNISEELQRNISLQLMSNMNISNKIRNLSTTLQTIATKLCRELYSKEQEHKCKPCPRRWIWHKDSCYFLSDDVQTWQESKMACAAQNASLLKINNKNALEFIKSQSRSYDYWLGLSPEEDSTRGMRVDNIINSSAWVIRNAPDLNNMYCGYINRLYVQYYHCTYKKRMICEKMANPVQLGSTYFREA

T3 sequence (P08637 17-208 F176V limits assumed): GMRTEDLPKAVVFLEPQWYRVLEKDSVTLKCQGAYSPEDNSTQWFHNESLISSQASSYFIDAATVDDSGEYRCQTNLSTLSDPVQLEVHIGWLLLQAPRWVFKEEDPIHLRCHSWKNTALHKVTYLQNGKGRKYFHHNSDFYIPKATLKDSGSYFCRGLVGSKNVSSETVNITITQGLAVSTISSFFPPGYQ
T4 sequence (Q8SPV9 24-297 limits assumed, chain 1 of 2): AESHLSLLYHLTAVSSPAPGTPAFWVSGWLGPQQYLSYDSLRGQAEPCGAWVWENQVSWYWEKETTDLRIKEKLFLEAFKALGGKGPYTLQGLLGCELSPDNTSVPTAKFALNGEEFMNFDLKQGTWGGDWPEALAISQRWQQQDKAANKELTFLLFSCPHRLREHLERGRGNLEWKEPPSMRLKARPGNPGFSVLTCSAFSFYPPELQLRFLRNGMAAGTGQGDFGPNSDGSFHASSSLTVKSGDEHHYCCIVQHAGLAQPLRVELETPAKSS
T4 sequence (Q8SPW0 21-119 limits assumed, chain 2 of 2): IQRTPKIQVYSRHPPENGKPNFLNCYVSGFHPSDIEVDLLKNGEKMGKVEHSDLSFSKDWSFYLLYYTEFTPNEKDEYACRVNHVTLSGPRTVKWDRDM

B1: AB0089 TriNKET (bispecific antibody, human IgG1, kappa)
chain: QLQLQESGPGLVKPSETLSLTCTVSGFSLTNYGLHWIRQPPGKCLEWIGVIWVGGATDYNPSLKSRVTISVDTSKNQFSLKLSSVQAADTAVYYCAKGDYGDTLDYWGQGTLVTVSSGGGGSGGGGSGGGGSGGGGSDIQMTQSPSSLSASVGDRVTITCHASQNINFWLSWYQQKPGKAPKLLIYEASNLHTGVPSRFSGSGSGTDFTLTISSLQPEDFATYYCQQSHSYPLTFGCGTKLEIKGSDKTHTCPPCPAPELLGGPSVFLFPPKPKDTLMISRTPEVTCVVVDVSHEDPEVKFNWYVDGVEVHNAKTKPREEQYNSTYRVVSVLTVLHQDWLNGKEYKCKVSNKALPAPIEKTISKAKGQPREPRVYTLPPCRDELTKNQVSLTCLVKGFYPSDIAVEWESNGQPENNYKTTPPVLVSDGSFTLYSKLTVDKSRWQQGNVFSCSVMHEALHNHYTQKSLSLSPG
heavy: EVQLVESGGGLVKPGGSLRLSCAASGFTFSSYSMNWVRQAPGKGLEWVSSISSSSSYIYYADSVKGRFTISRDNAKNSLYLQMNSLRAEDTAVYYCARGAPIGAAAGWFDPWGQGTLVTVSSASTKGPSVFPLAPSSKSTSGGTAALGCLVKDYFPEPVTVSWNSGALTSGVHTFPAVLQSSGLYSLSSVVTVPSSSLGTQTYICNVNHKPSNTKVDKKVEPKSCDKTHTCPPCPAPELLGGPSVFLFPPKPKDTLMISRTPEVTCVVVDVSHEDPEVKFNWYVDGVEVHNAKTKPREEQYNSTYRVVSVLTVLHQDWLNGKEYKCKVSNKALPAPIEKTISKAKGQPREPQVCTLPPSRDELTENQVSLTCLVKGFYPSDIAVEWESNGQPENNYKTTPPVLDSDGSFFLYSWLTVDKSRWQQGNVFSCSVMHEALHNHYTQKSLSLSPG
light: DIQMTQSPSSVSASVGDRVTITCRASQGISSWLAWYQQKPGKAPKLLIYAASSLQSGVPSRFSGSGSGTDFTLTISSLQPEDFATYYCQQGVSFPRTFGGGTKVEIKRTVAAPSVFIFPPSDEQLKSGTASVVCLLNNFYPREAKVQWKVDNALQSGNSQESVTEQDSKDSTYSLSSTLTLSKADYEKHKVYACEVTHQGLSSPVTKSFNRGEC
notes: F3' format heterodimer of three chains; human IgG1 Fc with EW-RVT and Y349C/S354C mutations; also called AB0089 Lot AB0089-002; CLEC12A TriNKET AB0089
**Q.** Which “EC50, primary NK mediated cytotoxic killing of PL21 cells” value [1] does the source give for B1 here?
**A.** The value was 0.35 nM.

**Q.** And the Kd [2]?
**A.** Its Kd is 1 nM.

**Q.** What about the Kd [3] of the same binder?
**A.** The Kd was 333 nM.

**Q.** And the koff [3]?
**A.** The koff was 0.0277 s⁻¹.

**Q.** And the kon [3]?
**A.** The kon was 83100 M⁻¹ s⁻¹.

**Q.** And the “EC50, rested NK cells lysis of HL60 cells (mean of four donors)” value [4]?
**A.** The value was 0.09 nM.

**Q.** What about the Kd (Cynomolgus FcRn) of the same binder?
**A.** The Kd was 1000 nM.

B2: AB0192 TriNKET (other)
chain: EVQLVESGGGVVQPGGSLRLSCAASGFTFNAFGMHWVRQAPGKCLEWVAFISSGSTSIYYANTVKGRFTISRDNSKNTLYLQMNSLRAEDTAVYYCARDGYPTGGAMDYWGQGTSVTVSSGGGGSGGGGSGGGGSGGGGSDIQMTQSPSSLSASVGDRVTITCKASQDIYNYLSWFQQKPGKAPKPLIYRANILVSGVPSRFSGSGSGQDYTFTISSLQPEDIATYYCLQFDAFPFTFGCGTKLEIKGSDKTHTCPPCPAPELLGGPSVFLFPPKPKDTLMISRTPEVTCVVVDVSHEDPEVKFNWYVDGVEVHNAKTKPREEQYNSTYRVVSVLTVLHQDWLNGKEYKCKVSNKALPAPIEKTISKAKGQPREPRVYTLPPCRDELTKNQVSLTCLVKGFYPSDIAVEWESNGQPENNYKTTPPVLVSDGSFTLYSKLTVDKSRWQQGNVFSCSVMHEALHNHYTQKSLSLSPG
heavy: EVQLVESGGGLVKPGGSLRLSCAASGFTFSSYSMNWVRQAPGKGLEWVSSISSSSSYIYYADSVKGRFTISRDNAKNSLYLQMNSLRAEDTAVYYCARGAPIGAAAGWFDPWGQGTLVTVSSASTKGPSVFPLAPSSKSTSGGTAALGCLVKDYFPEPVTVSWNSGALTSGVHTFPAVLQSSGLYSLSSVVTVPSSSLGTQTYICNVNHKPSNTKVDKKVEPKSCDKTHTCPPCPAPELLGGPSVFLFPPKPKDTLMISRTPEVTCVVVDVSHEDPEVKFNWYVDGVEVHNAKTKPREEQYNSTYRVVSVLTVLHQDWLNGKEYKCKVSNKALPAPIEKTISKAKGQPREPQVCTLPPSRDELTENQVSLTCLVKGFYPSDIAVEWESNGQPENNYKTTPPVLDSDGSFFLYSWLTVDKSRWQQGNVFSCSVMHEALHNHYTQKSLSLSPG
light: DIQMTQSPSSVSASVGDRVTITCRASQGISSWLAWYQQKPGKAPKLLIYAASSLQSGVPSRFSGSGSGTDFTLTISSLQPEDFATYYCQQGVSFPRTFGGGTKVEIKRTVAAPSVFIFPPSDEQLKSGTASVVCLLNNFYPREAKVQWKVDNALQSGNSQESVTEQDSKDSTYSLSSTLTLSKADYEKHKVYACEVTHQGLSSPVTKSFNRGEC
notes: the condition stands under assay; also called AB0192 Lot AB0192-005
**Q.** B2 was tested. Which Kd (mFc-hNKG2D [5]) did it give?
**A.** The Kd was 779 nM.

**Q.** What about the Kd (mFc-hNKG2D [6]) of the same binder?
**A.** Its Kd is 781 nM.

B3: F3'-1602 TriNKET (other)
chain: QLQLQESGPGLVKPSETLSLTCTVSGFSLTNYGLHWIRQPPGKCLEWIGVIWSGGKTDYNPSLKSRVTISKDTSKNQFSLKLSSVQAADTAVYYCAKYDYDDSLDYWGQGTLVTVSSGGGGSGGGGSGGGGSGGGGSDIQMTQSPSSLSASVGDRVTITCHASQNINFWLSWYQQKPGKAPKLLIYEASNLHTGVPSRFSGSGSGTRFTLTISSLQPEDIATYYCQQSHSYPLTFGCGTKLEIKGSDKTHTCPPCPAPELLGGPSVFLFPPKPKDTLMISRTPEVTCVVVDVSHEDPEVKFNWYVDGVEVHNAKTKPREEQYNSTYRVVSVLTVLHQDWLNGKEYKCKVSNKALPAPIEKTISKAKGQPREPRVYTLPPCRDELTKNQVSLTCLVKGFYPSDIAVEWESNGQPENNYKTTPPVLVSDGSFTLYSKLTVDKSRWQQGNVFSCSVMHEALHNHYTQKSLSLSPG
heavy: EVQLVESGGGLVKPGGSLRLSCAASGFTFSSYSMNWVRQAPGKGLEWVSSISSSSSYIYYADSVKGRFTISRDNAKNSLYLQMNSLRAEDTAVYYCARGAPIGAAAGWFDPWGQGTLVTVSSASTKGPSVFPLAPSSKSTSGGTAALGCLVKDYFPEPVTVSWNSGALTSGVHTFPAVLQSSGLYSLSSVVTVPSSSLGTQTYICNVNHKPSNTKVDKKVEPKSCDKTHTCPPCPAPELLGGPSVFLFPPKPKDTLMISRTPEVTCVVVDVSHEDPEVKFNWYVDGVEVHNAKTKPREEQYNSTYRVVSVLTVLHQDWLNGKEYKCKVSNKALPAPIEKTISKAKGQPREPQVCTLPPSRDELTENQVSLTCLVKGFYPSDIAVEWESNGQPENNYKTTPPVLDSDGSFFLYSWLTVDKSRWQQGNVFSCSVMHEALHNHYTQKSLSLSPG
light: DIQMTQSPSSVSASVGDRVTITCRASQGISSWLAWYQQKPGKAPKLLIYAASSLQSGVPSRFSGSGSGTDFTLTISSLQPEDFATYYCQQGVSFPRTFGGGTKVEIKRTVAAPSVFIFPPSDEQLKSGTASVVCLLNNFYPREAKVQWKVDNALQSGNSQESVTEQDSKDSTYSLSSTLTLSKADYEKHKVYACEVTHQGLSSPVTKSFNRGEC
notes: CLEC12A scFv-Fc, NKG2D A49MI Fab-Fc, human IgG1 Fc; also called AB0237
**Q.** How did the EC50 [7] turn out when B3 was run?
**A.** The EC50 was 2.2 nM.
